Measured values: PMC8202958 (Cell reports, 2021)

Experiments:
Test in all cases: pull-down
GST-Sla1(1–420aa) = target: T1, GST-Sla1(1–420aa) (S. cerevisiae, UniProt P32790 1-420)
T1 sequence (looked up): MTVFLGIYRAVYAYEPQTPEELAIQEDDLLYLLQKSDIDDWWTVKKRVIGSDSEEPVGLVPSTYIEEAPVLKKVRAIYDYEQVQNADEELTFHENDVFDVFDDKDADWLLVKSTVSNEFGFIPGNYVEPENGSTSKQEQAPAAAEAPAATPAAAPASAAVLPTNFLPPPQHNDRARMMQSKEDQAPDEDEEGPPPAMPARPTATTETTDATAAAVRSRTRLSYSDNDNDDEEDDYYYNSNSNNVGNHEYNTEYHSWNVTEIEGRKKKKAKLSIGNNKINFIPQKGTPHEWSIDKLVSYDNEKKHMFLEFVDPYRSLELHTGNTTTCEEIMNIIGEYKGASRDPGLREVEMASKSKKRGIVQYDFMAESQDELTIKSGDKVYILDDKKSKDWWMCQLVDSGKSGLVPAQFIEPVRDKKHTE

GST-Sla1(1–420aa, W41S) = target: T2, GST-Sla1(1–420aa, W41S) (S. cerevisiae, UniProt P32790 1-420, W41S)
T2 sequence (looked up): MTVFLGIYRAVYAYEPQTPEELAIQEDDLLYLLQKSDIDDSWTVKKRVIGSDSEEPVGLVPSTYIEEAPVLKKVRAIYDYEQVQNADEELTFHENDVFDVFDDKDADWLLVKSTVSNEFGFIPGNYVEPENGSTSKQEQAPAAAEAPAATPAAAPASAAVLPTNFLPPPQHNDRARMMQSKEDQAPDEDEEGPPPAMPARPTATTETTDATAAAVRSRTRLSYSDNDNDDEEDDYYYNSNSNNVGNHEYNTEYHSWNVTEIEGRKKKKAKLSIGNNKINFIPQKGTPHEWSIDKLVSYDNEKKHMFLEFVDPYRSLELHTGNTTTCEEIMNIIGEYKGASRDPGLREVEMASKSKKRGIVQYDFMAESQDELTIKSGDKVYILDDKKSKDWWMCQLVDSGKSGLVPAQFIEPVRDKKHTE

GST-Sla1(1–420aa, W108S) = target: T3, GST-Sla1(1–420aa, W108S) (S. cerevisiae, UniProt P32790 1-420, W108S)
T3 sequence (looked up): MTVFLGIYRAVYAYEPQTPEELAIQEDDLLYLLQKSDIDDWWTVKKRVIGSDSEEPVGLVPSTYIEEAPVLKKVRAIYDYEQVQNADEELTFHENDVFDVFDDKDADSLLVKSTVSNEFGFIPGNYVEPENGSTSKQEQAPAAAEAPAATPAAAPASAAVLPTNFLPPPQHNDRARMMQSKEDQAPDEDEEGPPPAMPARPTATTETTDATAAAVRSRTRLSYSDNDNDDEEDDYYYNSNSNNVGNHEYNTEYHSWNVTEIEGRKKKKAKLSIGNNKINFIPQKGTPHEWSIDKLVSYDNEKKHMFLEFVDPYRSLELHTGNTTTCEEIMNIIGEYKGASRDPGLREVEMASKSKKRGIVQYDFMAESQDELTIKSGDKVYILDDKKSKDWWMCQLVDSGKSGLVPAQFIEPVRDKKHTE

GST-Lsb3 = target: T4, GST-Lsb3 (S. cerevisiae, UniProt P43603 1-459)
T4 sequence (looked up): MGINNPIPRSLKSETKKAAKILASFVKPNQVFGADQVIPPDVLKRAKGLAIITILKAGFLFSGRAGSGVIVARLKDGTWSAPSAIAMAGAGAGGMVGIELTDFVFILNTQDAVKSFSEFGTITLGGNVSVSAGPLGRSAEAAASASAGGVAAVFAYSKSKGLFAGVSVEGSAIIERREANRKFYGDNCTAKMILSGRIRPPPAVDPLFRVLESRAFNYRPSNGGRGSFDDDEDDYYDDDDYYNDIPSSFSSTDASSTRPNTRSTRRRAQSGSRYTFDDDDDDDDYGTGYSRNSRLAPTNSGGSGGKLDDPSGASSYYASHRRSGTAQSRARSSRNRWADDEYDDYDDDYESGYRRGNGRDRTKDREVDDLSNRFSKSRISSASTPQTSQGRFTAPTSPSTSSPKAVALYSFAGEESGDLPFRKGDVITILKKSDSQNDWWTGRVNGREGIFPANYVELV

GST-Ysc84 = target: T5, GST-Ysc84 (S. cerevisiae, UniProt P32793 1-468)
T5 sequence (looked up): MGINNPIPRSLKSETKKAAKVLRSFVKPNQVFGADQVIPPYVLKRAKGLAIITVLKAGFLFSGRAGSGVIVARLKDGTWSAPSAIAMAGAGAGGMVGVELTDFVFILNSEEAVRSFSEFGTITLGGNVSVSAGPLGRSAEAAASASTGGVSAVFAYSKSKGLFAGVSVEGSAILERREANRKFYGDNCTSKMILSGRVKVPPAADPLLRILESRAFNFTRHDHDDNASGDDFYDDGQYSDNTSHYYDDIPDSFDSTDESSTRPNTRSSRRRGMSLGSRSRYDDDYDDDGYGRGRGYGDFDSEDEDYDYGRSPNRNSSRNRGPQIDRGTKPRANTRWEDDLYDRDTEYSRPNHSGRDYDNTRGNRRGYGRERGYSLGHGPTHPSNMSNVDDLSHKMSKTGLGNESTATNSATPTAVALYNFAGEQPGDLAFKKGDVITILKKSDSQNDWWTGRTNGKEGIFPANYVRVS

Measured: binding result

B1: MBP-Ecm25-C-term (361–599aa) (domain or fragment, S. cerevisiae, UniProt P32525 361-599, looked up)
chain: EISSPPSSVSSSSTIPVLPKPRKSSPTRYSELGCLTLPRSRSPSPQRSVTSPTYTPVALQNTPVLKPKSSSRNVSSPSFNAKPPLPIKAVTRPQLSLTSNSNTDLALASSSTDTLSSPTKTPSADSLPLSNSSTDLTISDNIKEMVKDEPAKDKNSVETDIFVQQFESLTLVQNAKIKKFDKELQEKKKKNETTSKTADKFSQKGYSDIKASNKVSRLAALYEERLQGLQVMNEMKQRW
binds: all assays above

B2: MBP-Ecm25(361–535aa) (domain or fragment, S. cerevisiae, UniProt P32525 361-535, looked up)
chain: EISSPPSSVSSSSTIPVLPKPRKSSPTRYSELGCLTLPRSRSPSPQRSVTSPTYTPVALQNTPVLKPKSSSRNVSSPSFNAKPPLPIKAVTRPQLSLTSNSNTDLALASSSTDTLSSPTKTPSADSLPLSNSSTDLTISDNIKEMVKDEPAKDKNSVETDIFVQQFESLTLVQNA
binds: all assays above
